This is an account of results in US20210032313A1 (Daiichi Sankyo, published 2021).

One assay addresses T1, KLK4 (human, UniProt Q9Y5K2).
T1 construct: commercial enzyme (R&D Systems, 1719-SE); 1 µg/mL in the assay; substrate Boc-Val-Pro-Arg-AMC 100 µM; also called Human KLK4; hKLK4
The assay can be described thus: fluorogenic peptide substrate cleavage, 1 µM inhibitor. The method, then: FIG. 3F includes graphs to evaluate the cross-reactivity of each inhibitory peptide with proteases, using the degradation of a peptide substrate as an index. For evaluating the Human KLK1 inhibitory activity, hKLK1 (R&D Systems, Inc., 2337-SE) with a final concentration of 0.1 μg/mL and a substrate peptide Pro-Phe-Arg-MCA (PEPTIDE […], INC., 3096-v) with a final concentration of 100 μM were used. For evaluating the Human KLK2 inhibitory activity, hKLK2 (R&D Systems, Inc., 4104-SE) with a final concentration of 2 μg/mL and a substrate peptide Pro-Phe-Arg-MCA (PEPTIDE […], INC., 3096-v) with a final concentration of 100 μM were used. For evaluating the Human KLK4 inhibitory activity, hKLK4 (R&D Systems, Inc., 1719-SE) with a final concentration of 1 μg/mL and a substrate peptide Boc-Val-Pro-Arg-AMC (R&D Systems, Inc., ES011) with a final concentration of 100 μM were used.
The specificities for other proteases were evaluated using the degradation of a substrate peptide as an index. As in the method described in (3-1), 25 μL each of a protease and a sample diluted with an assay buffer were mixed (to a final concentration of sample of 1 μM), followed by a reaction at 37° C. for 20 minutes. Thereafter, 50 μL of a substrate diluted with an assay buffer was added thereto, and the fluorescence signal was measured using Enspire (PerkinElmer). An assay buffer (50 mM Tris, 150 mM NaCl, pH 8.0) was used for the evaluation of the protease activity, and a PROTEOSAVE® SS96F black plate (Sumitomo Bakelite Co., Ltd.) was used for the reaction and the measurement. The combinations of the protease and the substrate used for the evaluation of the specificity were as follows.

Another assay has as its target T2, mouse KLK14 (mouse, UniProt Q8CGR5 24-250).
T2 sequence: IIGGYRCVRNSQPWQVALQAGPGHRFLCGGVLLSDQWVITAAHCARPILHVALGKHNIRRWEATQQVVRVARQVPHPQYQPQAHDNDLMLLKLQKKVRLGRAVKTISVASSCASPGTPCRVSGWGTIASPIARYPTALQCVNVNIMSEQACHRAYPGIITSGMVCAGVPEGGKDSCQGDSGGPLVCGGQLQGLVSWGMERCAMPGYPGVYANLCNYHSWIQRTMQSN
As to the kind of experiment: cell-based or functional assay.

In another assay the target is T3, mouse KLK5 (mouse).
T3 chain: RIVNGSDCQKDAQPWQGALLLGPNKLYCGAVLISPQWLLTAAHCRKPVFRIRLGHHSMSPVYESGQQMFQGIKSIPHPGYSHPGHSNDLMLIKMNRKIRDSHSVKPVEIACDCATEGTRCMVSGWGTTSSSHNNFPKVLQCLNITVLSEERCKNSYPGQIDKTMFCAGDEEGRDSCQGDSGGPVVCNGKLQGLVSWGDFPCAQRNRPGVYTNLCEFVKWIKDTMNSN
As to the kind of experiment: cell-based or functional assay.

The target of a further assay is mouse KLK7 (mouse, UniProt Q91VE3 26-249). As to the kind of experiment: cell-based or functional assay.
mouse KLK7, sequence (Q91VE3 26-249): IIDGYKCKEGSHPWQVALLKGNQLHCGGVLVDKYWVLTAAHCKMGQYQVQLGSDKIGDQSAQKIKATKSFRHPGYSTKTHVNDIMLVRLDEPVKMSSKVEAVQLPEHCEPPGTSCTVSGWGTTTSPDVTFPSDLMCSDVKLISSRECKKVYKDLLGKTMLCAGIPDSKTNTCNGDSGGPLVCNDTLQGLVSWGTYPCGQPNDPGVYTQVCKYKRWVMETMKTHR

T1 sequence (Q9Y5K2 31-254 limits assumed): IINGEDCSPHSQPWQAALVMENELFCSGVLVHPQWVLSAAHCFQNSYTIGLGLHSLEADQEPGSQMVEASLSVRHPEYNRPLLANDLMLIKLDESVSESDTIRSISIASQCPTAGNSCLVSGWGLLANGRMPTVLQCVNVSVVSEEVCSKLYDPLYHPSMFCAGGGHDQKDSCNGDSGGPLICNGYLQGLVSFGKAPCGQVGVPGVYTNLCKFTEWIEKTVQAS

B1: KLK5/KLK14 inhibitory peptide K51069 (peptide)
chain: GPQFGLFSKYRTPNCSQVVETYCNRDYDPVCGSDMSTYANECTLCMKIREGGHNIKIIRNGPCGG
notes: SPINK2 mutant peptide made in E. coli
As for B1, the binding result in the assay with KLK4 is “binds”. Further, the “IC50(nM) for mKLK14” value with mouse KLK14 was found to be 40 nM. Also, the “IC50(nM) for mKLK5” value with mouse KLK5 is less than 0.5 nM. In the assay with mouse KLK7, the “IC50(nM) for mKLK7” value is 181 nM.

B2: KLK5/KLK14 inhibitory peptide K50015 (peptide)
chain: GPQFGLFSKYRTPNCYDTTTHYCSREYDPVCGSDMSTYANECTLCMKIREGGHNIKIIRNGPCGG
notes: as for B1
For B2, in the assay with KLK4, the binding result is given as “binds”. For the same molecule, the “IC50(nM) for mKLK14” value with mouse KLK14 came out at 108 nM. In the assay with mouse KLK5, the “IC50(nM) for mKLK5” value was less than 0.5 nM. In the assay with mouse KLK7, the “IC50(nM) for mKLK7” value stood at 248 nM.
